Target: T1, DC-SIGN (human lectin receptor) expressed on a recombinant HEK cell line (human, UniProt Q9NNX6 1-404)
T1 construct: whole, on cells; The construct in the HEK cell line is not described
T1 sequence (looked up): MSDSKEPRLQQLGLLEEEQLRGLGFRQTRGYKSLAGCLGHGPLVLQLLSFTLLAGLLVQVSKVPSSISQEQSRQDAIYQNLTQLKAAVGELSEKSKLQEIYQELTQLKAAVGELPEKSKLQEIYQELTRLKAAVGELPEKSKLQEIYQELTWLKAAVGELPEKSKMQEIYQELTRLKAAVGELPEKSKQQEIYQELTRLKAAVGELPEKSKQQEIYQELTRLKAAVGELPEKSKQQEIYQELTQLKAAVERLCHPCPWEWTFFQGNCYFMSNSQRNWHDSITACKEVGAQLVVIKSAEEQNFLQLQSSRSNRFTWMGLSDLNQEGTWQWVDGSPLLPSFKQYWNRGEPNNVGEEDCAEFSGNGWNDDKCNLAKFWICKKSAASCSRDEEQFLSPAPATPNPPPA
Assay: binding to recombinant HEK cells expressing DC-SIGN (method not described)

binding result: no binding
B1: infliximab produced in CHO cell lines (antibody, V domains shown)
VH: EVKLEESGGGLVQPGGSMKLSCVASGFIFSNHWMNWVRQSPEKGLEWVAEIRSKSINSATHYAESVKGRFTISRDDSKSAVYLQMTDLRTEDTGVYYCSRNYYGSTYDYWGQGTTLTVSA
VL: DILLTQSPAILSVSPGERVSFSCRASQFVGSSIHWYQQRTNGSPRLLIKYASESMSGIPSRFSGSGSGTDFTLSINTVESEDIADYYCQQSHSWPFTFGSGTNLEVKR
modifications: single N-glycosylation site at position Asn297 ; chain 1 pos 300: Asn297 (EU) carries the single N-glycan; the glycoform depends on the CHO line (Inf or Inf-Sial)
